Binding result and Kd data for six molecules are collected here from paper PMC11551749.

The target of data set [1] is T1, RPA heterotrimer (RPA1/RPA2/RPA3) (human, UniProt P27694;P15927;P35244 1-616;1-270;1-121). As to the kind of experiment: bulk FRET.
Data set [2] has as its target T1, RPA heterotrimer (RPA1/RPA2/RPA3). As to the kind of experiment: EMSA. (A gel shift assay detects complexes by their altered migration in electrophoresis.)
Data set [3] has as its target T2, hnRNPA1 (human, UniProt P09651 1-372). As to the kind of experiment: bulk FRET.
For data set [4], the target named is hnRNPA1;RPA-E240K heterotrimer (human;human, UniProt P09651;P27694;P15927;P35244 1-372;1-616;1-270;1-121, |E240K). As to the kind of experiment: bulk FRET.
The target of data set [5] is hnRNPA1;RPA heterotrimer (RPA1/RPA2/RPA3) (human;human, UniProt P09651;P27694;P15927;P35244 1-372;1-616;1-270;1-121, |). The experiment in a line: bulk FRET.
A further data set addresses RPA-E240K heterotrimer (human, UniProt P27694;P15927;P35244 1-616;1-270;1-121, E240K). The experiment in a line: mass photometry.
In data set [6] the target is T1, RPA heterotrimer (RPA1/RPA2/RPA3). As to the kind of experiment: mass photometry.
The target of data set [7] is T2, hnRNPA1. As to the kind of experiment: bulk FRET. This is another data set of the same source.

Like-named read-outs stand apart in the source and are kept apart here.

T1 sequence (P27694 whole entry, chain 1 of 3): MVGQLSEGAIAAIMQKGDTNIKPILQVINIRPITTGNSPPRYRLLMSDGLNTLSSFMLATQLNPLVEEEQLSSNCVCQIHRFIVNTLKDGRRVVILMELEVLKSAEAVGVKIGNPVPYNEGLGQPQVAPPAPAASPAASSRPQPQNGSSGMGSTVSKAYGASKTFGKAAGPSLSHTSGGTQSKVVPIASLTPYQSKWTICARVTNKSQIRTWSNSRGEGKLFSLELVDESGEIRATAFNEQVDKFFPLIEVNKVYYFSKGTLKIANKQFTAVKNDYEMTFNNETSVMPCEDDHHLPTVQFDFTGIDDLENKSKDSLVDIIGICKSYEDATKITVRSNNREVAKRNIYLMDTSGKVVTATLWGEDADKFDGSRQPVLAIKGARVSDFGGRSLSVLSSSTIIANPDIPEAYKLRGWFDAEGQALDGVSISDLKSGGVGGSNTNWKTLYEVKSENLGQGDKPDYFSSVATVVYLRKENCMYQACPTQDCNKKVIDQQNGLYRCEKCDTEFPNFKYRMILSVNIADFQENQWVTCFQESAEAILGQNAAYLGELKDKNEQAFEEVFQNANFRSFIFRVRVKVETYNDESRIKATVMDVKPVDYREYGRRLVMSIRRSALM
T1 sequence (P15927 whole entry, chain 2 of 3): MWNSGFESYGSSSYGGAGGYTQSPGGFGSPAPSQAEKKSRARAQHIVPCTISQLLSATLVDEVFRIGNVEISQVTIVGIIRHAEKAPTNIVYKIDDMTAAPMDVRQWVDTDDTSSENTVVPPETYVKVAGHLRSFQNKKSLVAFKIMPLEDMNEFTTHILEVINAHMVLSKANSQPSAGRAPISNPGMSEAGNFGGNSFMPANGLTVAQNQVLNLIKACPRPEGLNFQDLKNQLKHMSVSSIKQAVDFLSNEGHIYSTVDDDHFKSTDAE
T1 sequence (P35244 whole entry, chain 3 of 3): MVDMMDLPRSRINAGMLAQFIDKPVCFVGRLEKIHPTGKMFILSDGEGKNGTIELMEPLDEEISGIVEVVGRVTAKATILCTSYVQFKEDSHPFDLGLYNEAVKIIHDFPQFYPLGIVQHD
T2 sequence (P09651 whole entry): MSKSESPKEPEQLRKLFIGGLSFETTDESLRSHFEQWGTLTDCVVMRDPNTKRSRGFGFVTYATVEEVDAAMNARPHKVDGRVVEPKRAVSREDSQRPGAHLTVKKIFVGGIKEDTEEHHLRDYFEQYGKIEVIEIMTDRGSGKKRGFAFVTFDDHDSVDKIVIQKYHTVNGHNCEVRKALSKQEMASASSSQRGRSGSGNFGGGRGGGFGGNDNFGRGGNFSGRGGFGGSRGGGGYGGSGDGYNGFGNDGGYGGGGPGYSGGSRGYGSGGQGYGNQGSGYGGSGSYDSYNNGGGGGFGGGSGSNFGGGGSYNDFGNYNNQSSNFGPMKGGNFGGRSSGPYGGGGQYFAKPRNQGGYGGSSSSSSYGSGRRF
Chain of RPA-E240K heterotrimer (P27694 whole entry E240K, chain 1 of 3): as the sequence (P27694 whole entry, chain 1 of 3) above, with E240K counted along it
Chain of RPA-E240K heterotrimer (P15927 whole entry, chain 2 of 3): as the sequence (P15927 whole entry, chain 2 of 3) above
Chain of RPA-E240K heterotrimer (P35244 whole entry, chain 3 of 3): as the sequence (P35244 whole entry, chain 3 of 3) above
Chain of hnRNPA1;RPA-E240K heterotrimer (P09651 whole entry, chain 1 of 4): as the sequence (P09651 whole entry) above
Chain of hnRNPA1;RPA-E240K heterotrimer (P27694 whole entry E240K, chain 2 of 4): as the sequence (P27694 whole entry, chain 1 of 3) above, with E240K counted along it
Chain of hnRNPA1;RPA-E240K heterotrimer (P15927 whole entry, chain 3 of 4): as the sequence (P15927 whole entry, chain 2 of 3) above
Chain of hnRNPA1;RPA-E240K heterotrimer (P35244 whole entry, chain 4 of 4): as the sequence (P35244 whole entry, chain 3 of 3) above
Chain of hnRNPA1;RPA heterotrimer (RPA1/RPA2/RPA3) (P09651 whole entry, chain 1 of 4): as the sequence (P09651 whole entry) above
Chain of hnRNPA1;RPA heterotrimer (RPA1/RPA2/RPA3) (P27694 whole entry, chain 2 of 4): as the sequence (P27694 whole entry, chain 1 of 3) above
Chain of hnRNPA1;RPA heterotrimer (RPA1/RPA2/RPA3) (P15927 whole entry, chain 3 of 4): as the sequence (P15927 whole entry, chain 2 of 3) above
Chain of hnRNPA1;RPA heterotrimer (RPA1/RPA2/RPA3) (P35244 whole entry, chain 4 of 4): as the sequence (P35244 whole entry, chain 3 of 3) above

B1: BCL-2G4 1245 (structured_DNA)
DNA: AGGGGCGGGCGCTTTAGGAAAAGGGCGGGT
As to B1, the binding result in data set [1] is “binds”.

B2: h-telG4 (FRET), five telomeric repeats (structured_DNA)
DNA: TTAGGGTTAGGGTTAGGGTTAGGGTTAGGG
As a reminder, the Kd is the constant that tells how readily two partners part at equilibrium. A high value points to weaker binding. Turning to B2, in data set [2], the binding result was “binds”. The Kd in the data set with hnRNPA1 [3] was determined as 20.6 ± 3.5 nM; in data set [4], 75.9 ± 25.5 nM; in data set [5], 27.4 ± 2.7 nM.

B3: h-telG4 (MP) (structured_DNA)
DNA: TTAGGGTTAGGGTTAGGGTTAGGGTTAGGG
Consider B3, for which the binding result (with RPA-E240K heterotrimer; in data set [6]) was “binds” each time.

B4: dT30 (ssDNA)
DNA: TTTTTTTTTTTTTTTTTTTTTTTTTTTTTT
With B4, in data set [1], the binding result is given as “binds”.

B5: PU27G4 (structured_DNA)
DNA: TGGGGAGGGTGGGGAGGGTGGGGAAGG
With B5, the binding result in data set [1] was “binds”.

B6: h-tel-15(FRET) (ssDNA)
DNA: TTAGGGTTAGGGTTA
Regarding B6, the Kd with hnRNPA1 [7] came to 73.5 ± 4.3 nM.
